According to patent publication US20210061911A1 (MacroGenics, published 2021):

Assays:
[1] = target: T1, Human CD123-His (human, UniProt P26951 19-305); assay: kinetic binding analysis, method not given
T1 construct: also called interleukin 3 receptor alpha; IL-3Rα; not shown: His tag
T1 sequence (looked up): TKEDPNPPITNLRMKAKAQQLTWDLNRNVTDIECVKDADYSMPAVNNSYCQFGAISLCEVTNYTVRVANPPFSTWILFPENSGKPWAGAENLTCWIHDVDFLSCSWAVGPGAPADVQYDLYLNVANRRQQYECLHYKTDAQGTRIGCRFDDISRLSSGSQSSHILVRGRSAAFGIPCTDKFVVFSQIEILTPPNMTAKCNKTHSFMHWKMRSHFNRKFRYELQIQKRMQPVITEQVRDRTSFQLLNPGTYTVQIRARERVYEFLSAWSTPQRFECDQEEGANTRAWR

[2] = target: T2, Cynomolgus CD123-His (cynomolgus monkey); assay: kinetic binding analysis, method not given
T2 construct: also called cynomolgus monkey CD123

B1: DART-A, sequence-optimized CD123×CD3 bi-specific monovalent diabody (bispecific antibody)
chain 1: QAVVTQEPSLTVSPGGTVTLTCRSSTGAVTTSNYANWVQQKPGQAPRGLIGGTNKRAPWTPARFSGSLLGGKAALTITGAQAEDEADYYCALWYSNLWVFGGGTKLTVLGGGGSGGGGEVQLVQSGAELKKPGASVKVSCKASGYTFTDYYMKWVRQAPGQGLEWIGDIIPSNGATFYNQKFKGRVTITVDKSTSTAYMELSSLRSEDTAVYYCARSHLLRASWFAYWGQGTLVTVSSGGCGGGEVAALEKEVAALEKEVAALEKEVAALEK
chain 2: DFVMTQSPDSLAVSLGERVTMSCKSSQSLLNSGNQKNYLTWYQQKPGQPPKLLIYWASTRESGVPDRFSGSGSGTDFTLTISSLQAEDVAVYYCQNDYSYPYTFGQGTKLEIKGGGSGGGGEVQLVESGGGLVQPGGSLRLSCAASGFTFSTYAMNWVRQAPGKGLEWVGRIRSKYNNYATYYADSVKDRFTISRDDSKNSLYLQMNSLKTEDTAVYYCVRHGNFGNSYVSWFAYWGQGTLVTVSSGGCGGGKVAALKEKVAALKEKVAALKEKVAALKE
notes: no Fc; also called CD123×CD3 DART molecule
B1 was tested, and the kon [1] was 160000 M⁻¹ s⁻¹ and the kon [2] was 150000 M⁻¹ s⁻¹.
